System: Escherichia coli TOP10
Assay: shrunken log2 fold change of peptide-encoding DNA abundance (4.5 h post-induction vs induction); higher = less antimicrobial activity (less host growth inhibition)
Settings: time post-induction: 4.5 h; library: site-saturation at positions 5, 18, 19, 20
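Further: peptides expressed intracellularly from a pBAD plasmid library in pooled LB shake-flask culture, induced with 0.3% L-arabinose, DNA abundance read by NGS, three biological replicates, DESeq2 with apeglm shrinkage.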

RRIRYRPPRLPRPRPRPTRTPRP
shrunken log2 fold change: -0.0719

RRIRYRPPRLPRPRPRPTSHPRP
shrunken log2 fold change: -0.611

RRIRYRPPRLPRPRPRPTTVPRP
shrunken log2 fold change: -0.243

RRIRYRPPRLPRPRPRPTWHPRP
shrunken log2 fold change: -0.349

RRIRYRPPRLPRPRPRPTWRPRP
shrunken log2 fold change: 0.104

RRIRYRPPRLPRPRPRPTWVPRP
shrunken log2 fold change: 0.18

RRIRYRPPRLPRPRPRPTWWPRP
shrunken log2 fold change: 0.134

RRIRYRPPRLPRPRPRPTYNPRP
shrunken log2 fold change: -1.32

RRIRYRPPRLPRPRPRPVAKPRP
shrunken log2 fold change: -0.128

RRIRYRPPRLPRPRPRPVCLPRP
shrunken log2 fold change: -0.365

RRIRYRPPRLPRPRPRPVDHPRP
shrunken log2 fold change: -0.328

RRIRYRPPRLPRPRPRPVFHPRP
shrunken log2 fold change: -0.492

RRIRYRPPRLPRPRPRPVGAPRP
shrunken log2 fold change: 0.252

RRIRYRPPRLPRPRPRPVIYPRP
shrunken log2 fold change: -0.0529

RRIRYRPPRLPRPRPRPVKCPRP
shrunken log2 fold change: -1.32

RRIRYRPPRLPRPRPRPVKLPRP
shrunken log2 fold change: 0.0698

RRIRYRPPRLPRPRPRPVKWPRP
shrunken log2 fold change: 0.0689

RRIRYRPPRLPRPRPRPVLLPRP
shrunken log2 fold change: -0.109

RRIRYRPPRLPRPRPRPVMTPRP
shrunken log2 fold change: -0.09

RRIRYRPPRLPRPRPRPVNRPRP
shrunken log2 fold change: -0.655

RRIRYRPPRLPRPRPRPVPVPRP
shrunken log2 fold change: -0.24

RRIRYRPPRLPRPRPRPVQDPRP
shrunken log2 fold change: -0.00208

RRIRYRPPRLPRPRPRPVQNPRP
shrunken log2 fold change: -0.0153

RRIRYRPPRLPRPRPRPVQTPRP
shrunken log2 fold change: -0.00992

RRIRYRPPRLPRPRPRPVTAPRP
shrunken log2 fold change: -0.298

RRIRYRPPRLPRPRPRPVTIPRP
shrunken log2 fold change: -0.0242

RRIRYRPPRLPRPRPRPVVGPRP
shrunken log2 fold change: -0.172

RRIRYRPPRLPRPRPRPVWAPRP
shrunken log2 fold change: 0.205

RRIRYRPPRLPRPRPRPVWKPRP
shrunken log2 fold change: 0.0654

RRIRYRPPRLPRPRPRPVWRPRP
shrunken log2 fold change: 0.119

RRIRYRPPRLPRPRPRPVWSPRP
shrunken log2 fold change: -0.337

RRIRYRPPRLPRPRPRPWFYPRP
shrunken log2 fold change: -1.48

RRIRYRPPRLPRPRPRPWGYPRP
shrunken log2 fold change: -0.0919

RRIRYRPPRLPRPRPRPWHAPRP
shrunken log2 fold change: -0.25

RRIRYRPPRLPRPRPRPWHYPRP
shrunken log2 fold change: -0.809

RRIRYRPPRLPRPRPRPWIMPRP
shrunken log2 fold change: -0.253

RRIRYRPPRLPRPRPRPWLHPRP
shrunken log2 fold change: -0.991

RRIRYRPPRLPRPRPRPWMGPRP
shrunken log2 fold change: -0.294

RRIRYRPPRLPRPRPRPWPAPRP
shrunken log2 fold change: 0.00297

RRIRYRPPRLPRPRPRPWRTPRP
shrunken log2 fold change: -0.298

RRIRYRPPRLPRPRPRPWSRPRP
shrunken log2 fold change: -0.205

RRIRYRPPRLPRPRPRPWWTPRP
shrunken log2 fold change: -0.333

RRIRYRPPRLPRPRPRPWYDPRP
shrunken log2 fold change: -0.109

RRIRYRPPRLPRPRPRPYAAPRP
shrunken log2 fold change: -0.546

RRIRYRPPRLPRPRPRPYAKPRP
shrunken log2 fold change: -1.76

RRIRYRPPRLPRPRPRPYANPRP
shrunken log2 fold change: -0.474

RRIRYRPPRLPRPRPRPYCAPRP
shrunken log2 fold change: -0.899

RRIRYRPPRLPRPRPRPYDMPRP
shrunken log2 fold change: -1.35

RRIRYRPPRLPRPRPRPYDNPRP
shrunken log2 fold change: -0.0463

RRIRYRPPRLPRPRPRPYEGPRP
shrunken log2 fold change: -0.00776

RRIRYRPPRLPRPRPRPYGPPRP
shrunken log2 fold change: -0.143

RRIRYRPPRLPRPRPRPYHFPRP
shrunken log2 fold change: -0.535

RRIRYRPPRLPRPRPRPYHNPRP
shrunken log2 fold change: -0.525

RRIRYRPPRLPRPRPRPYIKPRP
shrunken log2 fold change: -1.3

RRIRYRPPRLPRPRPRPYKAPRP
shrunken log2 fold change: 0.019

RRIRYRPPRLPRPRPRPYKFPRP
shrunken log2 fold change: -0.0196

RRIRYRPPRLPRPRPRPYKGPRP
shrunken log2 fold change: -0.721

RRIRYRPPRLPRPRPRPYLHPRP
shrunken log2 fold change: -0.0309

RRIRYRPPRLPRPRPRPYMCPRP
shrunken log2 fold change: -0.0233

RRIRYRPPRLPRPRPRPYNPPRP
shrunken log2 fold change: -0.256

RRIRYRPPRLPRPRPRPYQHPRP
shrunken log2 fold change: -1.87

RRIRYRPPRLPRPRPRPYTEPRP
shrunken log2 fold change: 0.034

RRIRYRPPRLPRPRPRPYTNPRP
shrunken log2 fold change: -1.35

RRIRYRPPRLPRPRPRPYTTPRP
shrunken log2 fold change: -0.554

RRIRYRPPRLPRPRPRPYVKPRP
shrunken log2 fold change: -1.12

RRIRYRPPRLPRPRPRPYVLPRP
shrunken log2 fold change: -0.35

RRIRYRPPRLPRPRPRPYVSPRP
shrunken log2 fold change: -0.0075

Source: the supplement of paper PMC9112550, “Optimization of the antimicrobial peptide Bac7 by deep mutational scanning” (BMC Biology, 2022)
